Measurements reported in PMC5469197, “ANGUSTIFOLIA, a Plant Homolog of CtBP/BARS Localizes to Stress Granules and Regulates Their Formation” (Frontiers in Plant Science, 2017).

Biological target: PROTEIN KINASE SU… PROTEIN (AIK1), Prot-A fusion (Arabidopsis thaliana)
Test: co-IP; LUMIER in HEK293TN cells: Prot-A fusion co-transfected with Renilla luciferase fusion (AN always the luciferase fusion with the interactors); luciferase activity before (input) and after pulldown; percentage pulldown = pulldown/input x 100; empty vectors as negative control; positive if more than two times the background

Chain of PROTEIN KINASE SU… PROTEIN (AIK1), Prot-A fusion (Arabidopsis thaliana) (main, as listed by the source): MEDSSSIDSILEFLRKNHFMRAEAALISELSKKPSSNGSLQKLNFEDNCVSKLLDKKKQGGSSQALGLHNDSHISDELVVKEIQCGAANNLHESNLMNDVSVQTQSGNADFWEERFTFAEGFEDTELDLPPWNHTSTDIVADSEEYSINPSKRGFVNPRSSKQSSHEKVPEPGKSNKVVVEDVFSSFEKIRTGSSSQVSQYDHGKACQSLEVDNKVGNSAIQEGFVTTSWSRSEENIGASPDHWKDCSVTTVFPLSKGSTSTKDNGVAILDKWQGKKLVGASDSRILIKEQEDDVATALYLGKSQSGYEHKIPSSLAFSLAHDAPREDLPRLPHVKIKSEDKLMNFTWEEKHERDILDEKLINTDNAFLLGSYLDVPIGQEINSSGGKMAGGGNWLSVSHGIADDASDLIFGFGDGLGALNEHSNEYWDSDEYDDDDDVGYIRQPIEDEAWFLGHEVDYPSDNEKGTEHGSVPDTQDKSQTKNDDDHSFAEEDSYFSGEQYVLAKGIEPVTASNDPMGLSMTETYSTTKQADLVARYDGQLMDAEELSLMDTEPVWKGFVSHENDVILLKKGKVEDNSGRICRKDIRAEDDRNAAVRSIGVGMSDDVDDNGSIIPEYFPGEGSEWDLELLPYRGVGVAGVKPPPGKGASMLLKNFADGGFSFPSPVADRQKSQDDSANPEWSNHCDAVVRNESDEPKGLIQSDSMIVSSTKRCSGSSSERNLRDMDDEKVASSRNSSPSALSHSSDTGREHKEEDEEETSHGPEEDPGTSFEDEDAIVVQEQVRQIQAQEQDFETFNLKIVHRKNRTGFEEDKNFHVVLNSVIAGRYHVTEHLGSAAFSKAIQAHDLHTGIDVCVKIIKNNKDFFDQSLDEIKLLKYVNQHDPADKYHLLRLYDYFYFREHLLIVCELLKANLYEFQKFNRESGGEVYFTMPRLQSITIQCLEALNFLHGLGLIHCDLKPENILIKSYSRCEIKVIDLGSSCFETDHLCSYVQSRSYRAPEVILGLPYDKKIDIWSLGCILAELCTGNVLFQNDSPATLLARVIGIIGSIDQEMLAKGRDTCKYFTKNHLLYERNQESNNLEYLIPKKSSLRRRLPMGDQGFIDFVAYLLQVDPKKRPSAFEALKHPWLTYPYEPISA

B1: AN^DOQ, Renilla luciferase fusion (LUMIER) (natural protein)
chain: MSKIRSSATMPHRDQPSPASPHVVTLNCIEDCALEQDSLAGVAGVEYVPLSRIADGKIESATAVLLHSLAYLPRAAQRRLRPHQLILCLGSADRAVDSTLAADLGLRLVHVDTSRAEEIADTVMALILGLLRRTHLLSRHALSASGWLGSLQPLCRGMRRCRGMVLGIVDRSVSARYLASRSLAFKMSVLYFDVPEGDEERIRPSRFPRAARRMDTLNDLLAASDVISLHCALTNDTVQILNAECLQHIKPGAFLVNTGSCQLLDDCAVKQLLIDGTIAGCALDGAEGPQWMEAWVKEMPNVLILPRSADYSEEVWMEIREKAISILHSFFLDGVIPSNTVSDEEVEESEASEEEEQSPSKHEKLAIVESTSRQQGESTLTSTEIVRREASELKESLSPGQQHVSQNTAVKPEGRRSRSGKKAKKRHSQQKYMQKTDGSSGLNEESTSRRDDIAMSDTEEVLSSSSRCASPEDSRSRKTPLEVMQESSPNQLVMSSKKFIGKSSELLKDGYVVALYAKDLSGLHVSRQRTKNGGWFLDTLSNVSKRDPAAQFIIAYRNKDTVGLRSFAAGGKLLQINRRMEFVFASHSFDVWESWSLEGSLDECRLVNCRNSSAVLDVRVEILAMVGDDGITRWID
interaction as percent of wild-type AN (% of wild-type AN): 1.6
